Literature values, collected in paper PMC8874714.

Molecular target: CYP102A1 (Priestia megaterium) (UniProt P14779)

Substance: CYP102A1 (from UniProt P14779)
- Kd: 1.1 nM
